According to the supplement of paper PMC10567573:

B1: KLHL12 (parent)
chain: REESLPNLLQYVRMPLLTPRYITD
B2: MIA2 (parent)
chain: DMVSNIELPTRIHEEVYFEPSSSK

Variants of: B1
Assay: protein stability index of a GFP-peptide fusion (GPS, HEK-293T) (PSI 1-6); higher = more stable
Conditions: c terminus: a fixed tail appended
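Further: lentivirally expressed fusions sorted by FACS into six bins by GFP to DsRed ratio, PSI derived from sequencing read proportions per bin multiplied by bin number.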

| Variant | protein stability index |
| --- | --- |
| REESLPNLLQYVRMPLLTPRYIND [T23N] | 2.85 |
| REESLPNLLQYVRMPLLTPRYIKD [T23K] | 3.35 |
| REESLPNLLQYVRMPLLTPRYIHD [T23H] | 2.58 |
| REESLPNLLQYVRMPLLTPRYIED [T23E] | 2.81 |
| REESLPNLLQYVRMPLLTPRYIQD [T23Q] | 2.65 |
| REESLPNLLQYVRMPLLTPRYIAD [T23A] | 2.9 |
| REESLPNLLQYVRMPLLTPRYICD [T23C] | 2.03 |
| REESLPNLLQYVRMPLLTPRYIMD [T23M] | 2.61 |
| REESLPNLLQYVRMPLLTPRYIDD [T23D] | 3.12 |
| REESLPNLLQYVRMPLLTPRYIGD [T23G] | 2.48 |
| REESLPNLLQYVRMPLLTPRYIFD [T23F] | 1.62 |
| REESLPNLLQYVRMPLLTPRYIID [T23I] | 2.12 |
| REESLPNLLQYVRMPLLTPRYIRD [T23R] | 3.83 |
| REESLPNLLQYVRMPLLTPRYIPD [T23P] | 2.57 |
| REESLPNLLQYVRMPLLTPRYIWD [T23W] | 1.7 |
| REESLPNLLQYVRMPLLTPRYISD [T23S] | 2.66 |
| REESLPNLLQYVRMPLLTPRYIYD [T23Y] | 2.09 |
| REESLPNLLQYVRMPLLTPRYILD [T23L] | 2.02 |
| REESLPNLLQYVRMPLLTPRYIVD [T23V] | 2.04 |
| REESLPNLLQYVRMPLLTPRYPTD [I22P] | 3.71 |
| REESLPNLLQYVRMPLLTPRYYTD [I22Y] | 2.34 |
| REESLPNLLQYVRMPLLTPRYNTD [I22N] | 2.71 |
| REESLPNLLQYVRMPLLTPRYVTD [I22V] | 2.18 |
| REESLPNLLQYVRMPLLTPRYLTD [I22L] | 2.4 |
| REESLPNLLQYVRMPLLTPRYETD [I22E] | 3.22 |
| REESLPNLLQYVRMPLLTPRYHTD [I22H] | 2.86 |

| Variant | protein stability index |
| --- | --- |
| REESLPNLLQYVRMPLLTPRYMTD [I22M] | 1.94 |
| REESLPNLLQYVRMPLLTPRYQTD [I22Q] | 2.54 |
| REESLPNLLQYVRMPLLTPRYDTD [I22D] | 3.27 |
| REESLPNLLQYVRMPLLTPRYCTD [I22C] | 2.55 |
| REESLPNLLQYVRMPLLTPRYATD [I22A] | 2.76 |
| REESLPNLLQYVRMPLLTPRYRTD [I22R] | 3.84 |
| REESLPNLLQYVRMPLLTPRYSTD [I22S] | 2.72 |
| REESLPNLLQYVRMPLLTPRYFTD [I22F] | 1.93 |
| REESLPNLLQYVRMPLLTPRYKTD [I22K] | 3.71 |
| REESLPNLLQYVRMPLLTPRYWTD [I22W] | 1.93 |
| REESLPNLLQYVRMPLLTPRYTTD [I22T] | 3.39 |
| REESLPNLLQYVRMPLLTPRYGTD [I22G] | 2.4 |
| REESLPNLLQYVRMPLLTPYYITD [R20Y] | 1.67 |
| REESLPNLLQYVRMPLLTPRYITW [D24W] | 2.11 |
| REESLPNLLQYVRMPLLTPRYITY [D24Y] | 2.22 |
| REESLPNLLQYVRMPLLTPRYITP [D24P] | 2.04 |
| REESLPNLLQYVRMPLLTPRYITH [D24H] | 2.06 |
| REESLPNLLQYVRMPLLTPRYITF [D24F] | 2.04 |
| REESLPNLLQYVRMPLLTPRYITR [D24R] | 2.75 |
| REESLPNLLQYVRMPLLTPRYITE [D24E] | 2.26 |
| REESLPNLLQYVRMPLLTPRYITV [D24V] | 1.57 |
| REESLPNLLQYVRMPLLTPRYITC [D24C] | 1.81 |
| REESLPNLLQYVRMPLLTPRYITS [D24S] | 2.01 |
| REESLPNLLQYVRMPLLTPRYITM [D24M] | 1.6 |
| REESLPNLLQYVRMPLLTPRYITI [D24I] | 3.11 |
| REESLPNLLQYVRMPLLTPRYITG [D24G] | 2.28 |

| Variant | protein stability index |
| --- | --- |
| REESLPNLLQYVRMPLLTPRYITN [D24N] | 2.35 |
| REESLPNLLQYVRMPLLTPRYITT [D24T] | 2.17 |
| REESLPNLLQYVRMPLLTPRYITA [D24A] | 1.84 |
| REESLPNLLQYVRMPLLTPRYITK [D24K] | 2.64 |
| REESLPNLLQYVRMPLLTPRYITQ [D24Q] | 2.5 |
| REESLPNLLQYVRMPLLTPRYITL [D24L] | 1.71 |
| REESLPNLLQYVRMPLLTPREITD [Y21E] | 3.17 |
| REESLPNLLQYVRMPLLTPRFITD [Y21F] | 2.22 |
| REESLPNLLQYVRMPLLTPRRITD [Y21R] | 3.24 |
| REESLPNLLQYVRMPLLTPRNITD [Y21N] | 3.25 |
| REESLPNLLQYVRMPLLTPRPITD [Y21P] | 3.15 |
| REESLPNLLQYVRMPLLTPRCITD [Y21C] | 2.95 |
| REESLPNLLQYVRMPLLTPRSITD [Y21S] | 3.37 |
| REESLPNLLQYVRMPLLTPRMITD [Y21M] | 2.97 |
| REESLPNLLQYVRMPLLTPRQITD [Y21Q] | 3.85 |
| REESLPNLLQYVRMPLLTPRTITD [Y21T] | 3.26 |
| REESLPNLLQYVRMPLLTPRKITD [Y21K] | 3.93 |
| REESLPNLLQYVRMPLLTPRDITD [Y21D] | 3.69 |
| REESLPNLLQYVRMPLLTPRIITD [Y21I] | 2.84 |
| REESLPNLLQYVRMPLLTPRVITD [Y21V] | 2.72 |
| REESLPNLLQYVRMPLLTPRGITD [Y21G] | 3.4 |
| REESLPNLLQYVRMPLLTPRLITD [Y21L] | 2.62 |
| REESLPNLLQYVRMPLLTPRHITD [Y21H] | 3.08 |
| REESLPNLLQYVRMPLLTPRAITD [Y21A] | 3.59 |
| REESLPNLLQYVRMPLLTPRWITD [Y21W] | 1.79 |

Variants of: B2
Assay: as above
Conditions: c terminus: a fixed tail appended

| Variant | protein stability index |
| --- | --- |
| DMVSNIELPQRIHEEVYFEPSSSK [T10Q] | 4.44 |
| DMVPNIELPTRIHEEVYFEPSSSK [S4P] | 4.34 |
| DMVSNIELHTRIHEEVYFEPSSSK [P9H] | 3.5 |
| DMVSNIELQTRIHEEVYFEPSSSK [P9Q] | 4.08 |
| DMVSNIELPTRIPEEVYFEPSSSK [H13P] | 4.32 |
| DMVSNIELPTRIHEEVYFEPSSSE [K24E] | 4.11 |
| DMVSNIELPTRIHEEVYFEPRSSK [S21R] | 3.13 |
| DQVSNIELPTRIHEEVYFEPSSSK [M2Q] | 5.01 |
| DMVSNIELPTRIHEEVYFEPSGSK [S22G] | 3.85 |
| DMVSNIELPTRIHEEVYFEPSLSK [S22L] | 2.58 |
| DMVSRIELPTRIHEEVYFEPSSSK [N5R] | 3.92 |
| DMESNIELPTRIHEEVYFEPSSSK [V3E] | 4.65 |
| DMNSNIELPTRIHEEVYFEPSSSK [V3N] | 3.86 |
| DMVSNIELPTRIHEEVYFAPSSSK [E19A] | 3.53 |
| GMVSNIELPTRIHEEVYFEPSSSK [D1G] | 3.65 |
| DMVSNIELPTRIHFEVYFEPSSSK [E14F] | 2.46 |
| DMVSNIELPTRIHDEVYFEPSSSK [E14D] | 3.59 |
